Measurements published in the nanobody polyreactivity screen of Harvey et al. (2022).

Test: yeast display, Sf9 membrane polyspecificity reagent, FACS + sequencing; frameworks hold sequencing errors
Method in brief: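 In a synthetic yeast display library (Saccharomyces cerevisiae BJ5465), nanobody expression was induced with galactose for 36–48 hours. FACS gates were set low and high (top ~1%) using anti-HA fluorescence for expression and streptavidin fluorescence for binding of the Sf9 membrane reagent. Each polyreactivity label is drawn from the gate of origin.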
With “QVQLVESGGGLVQAGGSLRLSCAASGRIFYNYAMGWYRQAPGKERELVAAISGSGGSTYYADSVKGRFTISRDNAKNTVYLQMNSLKPEDTAVYYCNARDVVYLITPYFLVYVNLDYWGQGTQVTVSS” the “polyreactivity (PSR sort gate)” value was “low polyreactivity”.
In the case of “QVQLVESGGGLVQAGGSLRLSCAASGRIFYNYAMGWYRQAPGKERELVAAISSSGGSTYYADSVKGRFTISRDNAKNTVYLQMNSLKPEDTAVYYCAVRKQYSGRYYRAYDYWGQGTQVTVSS”, the “polyreactivity (PSR sort gate)” value is reported as “high polyreactivity”.
In the case of “QVQLVESGGGLVQAGGSLRLSCAASGRIFYPNAMGWYRQAPGKERELVAAISKRGGRTYYADSVKGRFTISRDNAKNTVYLQMNSLNPEDTAVYYCATRWASYPRTGRYDYWGQGTQVTVSS”, the “polyreactivity (PSR sort gate)” value is reported as “high polyreactivity”.
With “QVQLVESGGGLVQAGGSLRLSCAASGRIFYPNDLGWYRQAPGKERELVAAITRDGSTNYADSVKGRFTISRDNAKNTVYLQMNSLKPEDTAVYYCAADISDWYIIRRMNYWGQGTQVTVSS” the “polyreactivity (PSR sort gate)” value was “low polyreactivity”.
For “QVQLVESGGGLVQAGGSLRLSCAASGRIFYPYAMGWYRQAPGKERELVAAIRRSGVDTYYADSVKGRFTISRDNAKNTVYFQMNSLKPEDTAVYYCAADPYWFFPHYDSWGQGTQVTVSS”, the “polyreactivity (PSR sort gate)” value was “low polyreactivity”.
In the case of “QVQLVESGGGLVQAGGSLRLSCAASGRIFYPYAMGWYRQAPGKERELVASITWRGGSTYYADSVKGRFTISRDNAKNTVYLQMNSLKPEDTAVYYCAAVPYSYTYVYLSHYDYWGQGTQVTVSS”, the “polyreactivity (PSR sort gate)” value is reported as “low polyreactivity”.
For “QVQLVESGGGLVQAGGSLRLSCAASGRIFYPYAMGWYRQAPGKERELVAVISYSGGGTYYADSVKWRFTISRDNAKNTVYLQMNRMKPEDTAVYYCAAYADYSYYVYDYWGQGTQVTVSS”, the “polyreactivity (PSR sort gate)” value was “high polyreactivity”.
For “QVQLVESGGGLVQAGGSLRLSCAASGRIFYQNAMGWYRQAPGKERELVADISSGGSTYYADSVKGRFTISRDNAKNTVYLQMNSLKPEDTAVYYCNTPSGPGTVGSYRRKWYGYWGQGTQVTVSS”, the “polyreactivity (PSR sort gate)” value was “low polyreactivity”.
With “QVQLVESGGGLVQAGGSLRLSCAASGRIFYQYAMGWYRQAPGKERELVAAITRGGNTYYADSVKGRFTISRDNAKNTVYLQMNSLKPEDTAVYYCNARWHTTGYRYDYWGQGTQVTVSS” the “polyreactivity (PSR sort gate)” value was “high polyreactivity”.
With “QVQLVESGGGLVQAGGSLRLSCAASGRIFYRNAMGWYRPAPGKERELVASITSAGRTYYADSVKGRFTISRDNAKNTVYLQMNSLKPEDTAVYYCAVRVAVLLNLYGYWGQGTQVTVSS” the “polyreactivity (PSR sort gate)” value was “low polyreactivity”.
For “QVQLVESGGGLVQAGGSLRLSCAASGRIFYRNGMGWYRQAPGKERELVAAISYSGGRTYYADSVKGRFTISRYNAKNTVYLQMNSLKPEDTAVYYCAAQWFEDFLYPWLEYDYWGQGTQVTVSS”, the “polyreactivity (PSR sort gate)” value was “high polyreactivity”.
In the case of “QVQLVESGGGLVQAGGSLRLSCAASGRIFYRYAMGWYRPAPGKERELVAAIRYSGGRTYYADSVKGRFTISRDNAKNTVYLQMISLKPEDTAVYYCAADGQWYYAPFRGGDYENDYWGQGTQVTVSS”, the “polyreactivity (PSR sort gate)” value is reported as “low polyreactivity”.
For “QVQLVESGGGLVQAGGSLRLSCAASGRIFYRYAMGWYRQAPGKERELVAAITGSGGSTYYADSVKGRFTISRDNAKNTVYLQMNSLKPEDTAVYYCNAVYARYGSQGYEYWGHGTQVTVSS”, the “polyreactivity (PSR sort gate)” value was “high polyreactivity”.
For “QVQLVESGGGLVQAGGSLRLSCAASGRIFYRYAMGWYRQAPGKERELVATITSGGGTHYADSVKGRFTISRDNAKNTVYLQMNSLKPEDTAVYYCAAVQWYGYPYYSWGQGTQVTVSS”, the “polyreactivity (PSR sort gate)” value was “low polyreactivity”.
In the case of “QVQLVESGGGLVQAGGSLRLSCAASGRIFYRYTMGRYRQAPGKERELVAAITSSSGSTYYADSVKGRFTISRDNAKNTVYLQMNSLKPEDTAVYYCAARIYHDIDTRSYYWGQGTQVTVSS”, the “polyreactivity (PSR sort gate)” value is reported as “high polyreactivity”.
In the case of “QVQLVESGGGLVQAGGSLRLSCAASGRIFYRYTMGWYRQAPGKERELVAAITRSGSSTRYADSVKGRFTISRDYAKNTVYLQMNSLKPEDTAVYYCATRVTSRTSGFDYWGQGTQVTVSS”, the “polyreactivity (PSR sort gate)” value is reported as “high polyreactivity”.
In the case of “QVQLVESGGGLVQAGGSLRLSCAASGRIFYRYVMGWYRQAPGKERELVAAISRGGGTNYADSVKGRFTISRDNAKNTVYLQMNSLKPEDTAVYYCAARGSPGAGYYWGQGTQVTVSS”, the “polyreactivity (PSR sort gate)” value is reported as “high polyreactivity”.
For “QVQLVESGGGLVQAGGSLRLSCAASGRIFYSIAMGWYRQAPGKERELVAAISRSGVRTYYADSVKGRFTISRDNAKNTVYLQMNSLKPEDTAVYYCAAVIYGTTPQDEYDYWGQGTQVTVSS”, the “polyreactivity (PSR sort gate)” value was “low polyreactivity”.
In the case of “QVQLVESGGGLVQAGGSLRLSCAASGRIFYSYAMGWYRQAPGKERELVAAITDSGGSTYADSVKGRFTISRDNAKNTVYLQMNSLKPEDTAVYADSTYNWYYYYWGQGTQVTVSS”, the “polyreactivity (PSR sort gate)” value is reported as “low polyreactivity”.
For “QVQLVESGGGLVQAGGSLRLSCAASGRIFYSYAMGWYRQAPGKERELVATISSAGSTYYADAVKGRFTISRDNAKNTVYLQMNSLKPEDTAVYYCAARRPRRYGYWGQGTQVTVSS”, the “polyreactivity (PSR sort gate)” value was “high polyreactivity”.
In the case of “QVQLVESGGGLVQAGGSLRLSCAASGRIFYTNAMGWYRPAPGKERELVAAITRSGGRTYYADSVKGRFTISRDNAKNTVYLQMNSLKPEDTGVYYCAKVGYGHTGMGYWGQGTQVTVSS”, the “polyreactivity (PSR sort gate)” value is reported as “high polyreactivity”.
For “QVQLVESGGGLVQAGGSLRLSCAASGRIFYVNAMGWYRQAPGKERELVAGIDDGVTTYYAVSVKGRFTSSRDNAKNTVYLQMNSLKPEDTAVYYCAKETLVILIYDYWGQGTQVTVSS”, the “polyreactivity (PSR sort gate)” value was “low polyreactivity”.
With “QVQLVESGGGLVQAGGSLRLSCAASGRIFYVYAMGWYRQAPGKEMELVATITSSGEGTYYADSVMGRFTISRDNAKNTVYLQMNSLKPEDTAVYYCARRYFVRFVHPPYYYWGQGTQVTVSS” the “polyreactivity (PSR sort gate)” value was “low polyreactivity”.
With “QVQLVESGGGLVQAGGSLRLSCAASGRIFYVYAMGWYRQAPGKEREFVAAITRRSGSTYYADSVKGRFTISRDNAKNTVYFQMKSVKPEDTAVYSCNARLKYAIPQVPPYDYWGQGTQVTVSS” the “polyreactivity (PSR sort gate)” value was “high polyreactivity”.
In the case of “QVQLVESGGGLVQAGGSLRLSCAASGRIFYVYAMGWYRQAPGKERELVAAITQSGGRTYYADSVKGRFTISRDNAKNTVYLQMNSLKPEDTAVYYCAATWLGSRNLVHITLYYWGQGTQVTVSS”, the “polyreactivity (PSR sort gate)” value is reported as “low polyreactivity”.
For “QVQLVESGGGLVQAGGSLRLSCAASGRIFYVYAMGWYRQAPGKERELVAAITSGGRTDYADSVKGRFTISRDNAKNTVYLQMNSLKPEDTAVYYCAVRGSYRGWYDYWGQGTQVTVSS”, the “polyreactivity (PSR sort gate)” value was “high polyreactivity”.
With “QVQLVESGGGLVQAGGSLRLSCAASGRIFYVYAMGWYRQAPGKERELVAAITWRGGTTYYADSVKGRFTISRDNAKNTVYLQMNSLKPEDTAVYYCNAKYFRSYYSIEYDYWGQGTQVTVSS” the “polyreactivity (PSR sort gate)” value was “low polyreactivity”.
With “QVQLVESGGGLVQAGGSLRLSCAASGRIFYVYAMGWYRQAPGKERELVPAITSSGGSTYYADSVKGRFTISRDTAKNTVYLQMNSLKPEDTAVYYCAARERAGYSRIRYNYWGQGTQVTVSS” the “polyreactivity (PSR sort gate)” value was “high polyreactivity”.
In the case of “QVQLVESGGGLVQAGGSLRLSCAASGRIFYWNAMGWYRQAPGKERELVAAITYSTGSTYYADSVKGRFTISRDNAKNTVYLQMNSLKPEDTAVYYCAAEGPRGSWWALYDYWGQGTQVTVSS”, the “polyreactivity (PSR sort gate)” value is reported as “low polyreactivity”.
In the case of “QVQLVESGGGLVQAGGSLRLSCAASGRIFYWNAMGWYRQEPGKEREFVAAIRLSSGSTYYADSVKGRFTISRDNAKYTVYLQLNSLKPVDTAVYYCATRTYTYWGGSYPHFYWGQGTQVTVSS”, the “polyreactivity (PSR sort gate)” value is reported as “high polyreactivity”.
For “QVQLVESGGGLVQAGGSLRLSCAASGRIFYYAMGWYRQAPGKERELVASITWSGGSTYYADSVKGRFTISRDNAKNTVYLQMNSLKPEDTAVYYCNADDLYTWYVVYNYWGQGTQVTVSS”, the “polyreactivity (PSR sort gate)” value was “low polyreactivity”.
With “QVQLVESGGGLVQAGGSLRLSCAASGRIFYYNAMGSYRQAPGKESELVAAIRRSGSRTYYADSVKGRFTISRDNSKNTVSLEMNSLKPEDTAVYYCAAKYASFAHHDSWGQGTQVTVSS” the “polyreactivity (PSR sort gate)” value was “high polyreactivity”.
In the case of “QVQLVESGGGLVQAGGSLRLSCAASGRIFYYNAMGWYRPAPGKERELVATITGSGGSTYYADSVKGRFTISRDNAKNTVYLQMNSLKPEDTAVYYCNATRWYYDFYKLDYWGQGTKVTVSS”, the “polyreactivity (PSR sort gate)” value is reported as “low polyreactivity”.
For “QVQLVESGGGLVQAGGSLRLSCAASGRIFYYNAMGWYRQAPGKERELVAAIRGGGSTNYADSVKGRFTISRDNAKNTVYLQMNSLKPEDTAVYYCAAPWTQILDYWGQGTQVTVSS”, the “polyreactivity (PSR sort gate)” value was “low polyreactivity”.
In the case of “QVQLVESGGGLVQAGGSLRLSCAASGRIFYYNAMGWYRQAPGKESELVAAIRYSGGSTSYADSVKGRFTISRDNAKNTVYLQMNSLKPEDTAVYYCAASTSNRWKLNYWGQGTQVTVSS”, the “polyreactivity (PSR sort gate)” value is reported as “high polyreactivity”.
With “QVQLVESGGGLVQAGGSLRLSCAASGRIFYYNTMGWYRQAPGKERELVAAITRSGGSTYYADSVKGRFTISRDNAKNTVYLQMNSLKPEDTAVYYCAAQRRYDTADHGYWGQGTQVTVSS” the “polyreactivity (PSR sort gate)” value was “high polyreactivity”.
With “QVQLVESGGGLVQAGGSLRLSCAASGRIFYYYAMGWYRQAPGKERELVAAISAGGGRTYYADSVKGRFTISRDNAKNTVYLQMNSLKPEDTAVYYCAVGRRIPGKYTSFGYWGQGTQVTVSS” the “polyreactivity (PSR sort gate)” value was “high polyreactivity”.
For “QVQLVESGGGLVQAGGSLRLSCAASGRIFYYYAMGWYRQAPGKERELVAAITWSGVNTYYADSVKGRFTISRDNAKNTVYLQMNSLKPEDTAVYYCATDTGYPYSYDLYDSYYWGQGTQVTVSS”, the “polyreactivity (PSR sort gate)” value was “low polyreactivity”.
With “QVQLVESGGGLVQAGGSLRLSCAASGRIFYYYAMGWYRQAPGKERELVAGIDSGDSTNYADSVKGRFTISRDNAKNTVYLQMNSLKPEDTAVYYCAALHYGGYFSYYPYYYWGQGTQVTVSS” the “polyreactivity (PSR sort gate)” value was “low polyreactivity”.
In the case of “QVQLVESGGGLVQAGGSLRLSCAASGRIFYYYAMGWYRQAPGKERELVATISSSGGSTYYADSVRGRFTISRDNAKNTVYLQMNSLKPEDTAVYYCAARVPLWSRGRTTWPKSQYEYWGQGTQVTVSS”, the “polyreactivity (PSR sort gate)” value is reported as “high polyreactivity”.
In the case of “QVQLVESGGGLVQAGGSLRLSCAASGRIFYYYAMGWYRQAPGKERELVATITTTGNTYYADSVKGRFTISRDNAKNTVYLQMNSLKPEDTAVYYCNAGWDLVYGYYPRRKNFDYWGQRTQVTVSS”, the “polyreactivity (PSR sort gate)” value is reported as “high polyreactivity”.
For “QVQLVESGGGLVQAGGSLRLSCAASGRIFYYYAMGWYRQAPGKESELVAAISGGGGRTYYADSVKGRFTISRDNAKHTVYLQMNSLKPEDTAVYYCNADYFYRTVNQRYDYWGQGTQVTVSS”, the “polyreactivity (PSR sort gate)” value was “high polyreactivity”.
With “QVQLVESGGGLVQAGGSLRLSCAASGRIFYYYDMGWNRQAPGQERELVAAISFSDGITYYADSVKGRFTISRDNAKNTVYLQMNSLKPEDTAVYYCAAVYRYRNRREYDYWGQGTEVTVSS” the “polyreactivity (PSR sort gate)” value was “high polyreactivity”.
